Earlier results in paper PMC4475429.

Molecular target: PKA RIα (Homo sapiens) (UniProt P10644)
Sequence (P10644 whole entry): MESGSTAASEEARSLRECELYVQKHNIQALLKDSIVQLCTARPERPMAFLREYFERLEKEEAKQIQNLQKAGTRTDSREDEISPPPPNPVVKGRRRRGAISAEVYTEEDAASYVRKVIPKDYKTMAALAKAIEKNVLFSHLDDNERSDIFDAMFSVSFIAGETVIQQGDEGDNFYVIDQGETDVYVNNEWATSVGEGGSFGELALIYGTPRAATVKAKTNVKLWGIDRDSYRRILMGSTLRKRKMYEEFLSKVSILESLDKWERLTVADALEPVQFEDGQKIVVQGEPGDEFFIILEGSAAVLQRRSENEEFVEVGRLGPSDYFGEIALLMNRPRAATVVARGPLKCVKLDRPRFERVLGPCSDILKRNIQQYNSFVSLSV

Chain of Ht31 (Q12802 whole entry): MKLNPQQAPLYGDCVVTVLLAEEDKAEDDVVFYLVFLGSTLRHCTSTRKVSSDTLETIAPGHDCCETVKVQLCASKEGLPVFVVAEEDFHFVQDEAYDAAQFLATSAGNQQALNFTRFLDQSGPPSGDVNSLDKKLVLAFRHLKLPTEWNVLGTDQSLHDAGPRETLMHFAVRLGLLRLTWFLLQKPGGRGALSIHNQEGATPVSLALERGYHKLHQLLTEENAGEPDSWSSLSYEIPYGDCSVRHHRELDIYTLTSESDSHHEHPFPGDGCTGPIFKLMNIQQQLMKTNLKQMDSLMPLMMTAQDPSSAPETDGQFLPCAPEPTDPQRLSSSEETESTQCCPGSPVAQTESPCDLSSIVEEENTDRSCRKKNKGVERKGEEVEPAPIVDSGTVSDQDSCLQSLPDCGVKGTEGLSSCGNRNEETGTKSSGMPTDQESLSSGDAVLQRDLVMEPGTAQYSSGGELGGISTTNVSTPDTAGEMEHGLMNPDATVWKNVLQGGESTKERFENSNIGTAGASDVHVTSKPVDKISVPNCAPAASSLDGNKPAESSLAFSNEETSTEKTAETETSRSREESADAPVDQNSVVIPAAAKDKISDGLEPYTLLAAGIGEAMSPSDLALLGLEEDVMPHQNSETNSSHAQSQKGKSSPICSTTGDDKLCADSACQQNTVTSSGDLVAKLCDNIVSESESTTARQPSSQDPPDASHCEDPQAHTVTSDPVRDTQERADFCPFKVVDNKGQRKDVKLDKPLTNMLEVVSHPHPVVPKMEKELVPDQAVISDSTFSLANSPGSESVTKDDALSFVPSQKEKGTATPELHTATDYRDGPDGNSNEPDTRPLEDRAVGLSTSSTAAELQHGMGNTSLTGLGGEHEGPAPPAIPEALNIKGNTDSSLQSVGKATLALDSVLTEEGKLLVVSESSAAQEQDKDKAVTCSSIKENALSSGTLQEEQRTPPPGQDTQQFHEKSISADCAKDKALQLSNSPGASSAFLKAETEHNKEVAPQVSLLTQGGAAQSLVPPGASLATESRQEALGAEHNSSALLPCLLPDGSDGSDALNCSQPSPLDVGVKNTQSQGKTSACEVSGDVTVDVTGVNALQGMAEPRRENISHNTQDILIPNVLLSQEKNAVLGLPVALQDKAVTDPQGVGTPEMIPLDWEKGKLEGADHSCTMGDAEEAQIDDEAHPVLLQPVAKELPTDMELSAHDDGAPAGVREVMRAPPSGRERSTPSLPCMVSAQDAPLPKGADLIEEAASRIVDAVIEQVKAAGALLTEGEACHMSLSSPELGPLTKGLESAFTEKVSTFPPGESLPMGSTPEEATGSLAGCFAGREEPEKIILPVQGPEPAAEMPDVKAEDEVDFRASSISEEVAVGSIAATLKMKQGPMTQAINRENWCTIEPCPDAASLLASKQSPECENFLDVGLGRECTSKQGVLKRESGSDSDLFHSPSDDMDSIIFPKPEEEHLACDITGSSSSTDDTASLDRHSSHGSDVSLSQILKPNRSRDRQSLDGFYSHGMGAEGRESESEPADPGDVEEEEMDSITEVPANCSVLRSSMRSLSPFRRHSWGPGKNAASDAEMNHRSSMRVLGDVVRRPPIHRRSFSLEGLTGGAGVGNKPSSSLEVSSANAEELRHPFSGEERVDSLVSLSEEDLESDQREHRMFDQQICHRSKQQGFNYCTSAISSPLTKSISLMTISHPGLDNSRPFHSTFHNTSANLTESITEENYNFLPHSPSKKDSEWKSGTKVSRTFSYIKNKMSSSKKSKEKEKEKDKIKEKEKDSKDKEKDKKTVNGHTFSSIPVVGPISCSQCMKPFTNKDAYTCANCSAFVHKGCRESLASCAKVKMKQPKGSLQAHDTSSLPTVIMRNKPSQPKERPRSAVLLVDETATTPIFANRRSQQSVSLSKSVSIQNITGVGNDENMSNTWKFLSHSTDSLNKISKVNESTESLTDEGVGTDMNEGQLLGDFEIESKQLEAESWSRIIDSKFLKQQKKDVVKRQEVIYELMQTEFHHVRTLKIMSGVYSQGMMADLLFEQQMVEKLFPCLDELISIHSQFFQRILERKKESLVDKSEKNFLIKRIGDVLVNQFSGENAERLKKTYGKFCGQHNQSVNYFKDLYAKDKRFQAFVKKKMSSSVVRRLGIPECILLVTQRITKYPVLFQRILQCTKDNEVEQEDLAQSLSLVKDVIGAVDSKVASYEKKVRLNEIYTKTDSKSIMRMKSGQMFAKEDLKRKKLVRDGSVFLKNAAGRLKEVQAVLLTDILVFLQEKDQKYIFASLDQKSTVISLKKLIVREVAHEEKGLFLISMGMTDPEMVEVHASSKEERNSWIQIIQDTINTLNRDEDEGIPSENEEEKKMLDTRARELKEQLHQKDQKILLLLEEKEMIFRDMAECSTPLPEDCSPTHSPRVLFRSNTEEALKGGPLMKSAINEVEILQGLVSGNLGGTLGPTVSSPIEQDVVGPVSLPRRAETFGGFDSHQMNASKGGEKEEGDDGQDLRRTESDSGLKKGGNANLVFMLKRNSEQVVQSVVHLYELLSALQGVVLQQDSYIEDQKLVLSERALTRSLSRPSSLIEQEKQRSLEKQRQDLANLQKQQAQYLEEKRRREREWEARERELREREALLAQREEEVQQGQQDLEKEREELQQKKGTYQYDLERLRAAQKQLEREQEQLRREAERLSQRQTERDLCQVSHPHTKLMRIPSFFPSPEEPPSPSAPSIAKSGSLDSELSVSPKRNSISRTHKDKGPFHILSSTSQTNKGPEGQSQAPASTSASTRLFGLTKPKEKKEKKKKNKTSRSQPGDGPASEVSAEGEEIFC

- Kd: 2.1 µM
Substance: Ht31 (from UniProt Q12802)
